Assay results taken from patent publication US20100203630A1.

Biological target: envelope of the SF162 strain of pseudovirus (HIV, SF162) (UniProt P19550)
Experiment: cell-based or functional assay

purified b12-IgG1 (antibody) gave a neutralizing 50% inhibitory concentration (IC50), pseudovirus neutralization assay of 0.026 µg/mL.
